Results taken from patent publication US8399206B2, “Methods for diagnosis, prognosis and methods of treatment” (Nodality, Inc., priority 2008, dated 2013).

Tests used:
Assay type in all cases: cell-based, human
[1] = system: healthy bone marrow myeloblast (BMMC); experiment: FLT3L-induced signaling in healthy control BMMC myeloblasts (Example 9); settings: BMMC samples
From the text: (§1) This example identifies intracellular signaling pathways associated with FLT3 ITD in two independent cohorts of diagnostic AML samples that serve as an improvement over current clinical tools in the identification of clinically meaningful altered FLT 3 and has implications for cohort selection in the development of FLT3 inhibitors. The two cohorts of data were further analyzed to investigate the differences in signaling between FLT-WT and FLT-ITD samples. The first cohort of data (“study 1”) comprised the 34 samples from University Health Network outlined in Table 16 and Table 19. The second cohort of data (“study 2”) comprised an 83 sample subset of MD Anderson Cancer Center data outlined in Table 16 (and Table 19). The 83 sample subset was selected based on known FLT3 mutation status. Both cohorts of data were used to investigate differences in FLT3 signaling between leukemic blasts and control data.
(§2) In order to further characterize wild-type FLT receptor signaling in AML, we compared FLT3L-induced signaling in the myeloblast population of control BMMC samples with FLT3L-induced signaling in the leukemic blast population of FLT3-WT AML samples.

[2] = system: leukemic myeloblasts and healthy BMMb; experiment: SCNP in AML patients aged >60 years (ECOG E3999), FLT3-ITD vs FLT3-WT vs healthy BMMb (Example 12); settings: FLT3-ITD blasts compared to BMMb
From the text: Modulated single cell network profiling (SCNP) was used to evaluate the activation state of intracellular signaling molecules (i.e. nodes), including phosphorylated (p)-Akt, p-Erk, p-S6, p-Stat5 and cleaved-PARP, at baseline and after treatment with specific modulators [including cytokines (such as IL-27) growth factors (such as FLT3 ligand) and drugs (such a cytosine arabinoside)] in 7 healthy bone marrow mononuclear blasts (BMMb) and leukemic myeloblasts, characterized for FLT3 receptor mutation status, from 44 AML patients (38 FLT-WT and 6 FLT3-ITD), aged>60 years (ECOG trial E3999). A total of 64 node-metrics were analyzed.

[3] = system: AML blasts; experiment: SCNP / phospho-flow modulated signaling assay, AML study No. 1 (PBMC at diagnosis, CR vs NR)
[4] = system: FLT3-WT and FLT3-ITD AML leukemic blasts; experiment: SCNP signaling and apoptosis in FLT3-WT versus FLT3-ITD AML samples (Example 9)
From the text: as §1, §2
Univariate analysis, unadjusted for multiple testing, was performed sequentially and independently on the two study cohorts in order to identify signaling nodes that distinguished with FLT3-ITD from FLT3-WT AML patient samples. […] Results from both studies include the AUC, Wilcoxon and t-test p-value for each node, and the number/mean value of the samples in the FLT3-ITD and FLT3-WT AML groups with common stratifying nodes summarized in FIG. 23. Although the majority of the discussion herein is directed to nodes that had similar reponses within the two cohorts of data, some differences were observed between the two cohorts of data. These differences may have been due to the different clinical characteristics of the two cohorts of data, specifically biases in the data from UHN.

[5] = Study No. 1 sensitivity analysis, CR samples
[6] = Study No. 1 sensitivity analysis, NR samples incl. CRp

B1: FLT-3L: fms-like tyrosine kinase receptor-3 ligand (protein, UniProt P49771 27-235, looked up)
Fms-related tyrosine kinase 3 …: TQDCSFQHSPISSDFAVKIRELSDYLLQDYPVTVASNLQDEELCGGLWRLVLAQRWMERLKTVAGSKMQGLLERVNTEIHFVTKCAFQPPPSCLRFVQTNISRLLQETSEQLVALKPWITRQNFSRCLELQCQPDSSTLPPPWSPRPLEATAPTAPQPPLLLLLLLPVGLLLLAAAWCLHWQRTRRRTPRPGEQVPPVPSPQDLLLVEH
FLT3L activation of p-Akt and p-S6 at later time point [1]: largely diminished by 15 minutes
range of FLT3L-induced S6 signaling [1]: narrow range of S6 signaling
FLT3L-induced p-Akt and p-S6 ([1]; early time points (4 minutes, 10 minutes)): increased levels of p-Akt and p-S6
FLT3 ligand-induced pathway activation [2]: decreased FLT3 ligand-induced activation of P13K and Raf/Ras/Erk pathways
Mean Value of CRs, p-Akt Fold [3, 5]: 0.10
Mean Value of CRs, p-CREB Fold [3, 5]: 0.07
Mean Value of CRs, p-CREB Total Phospho [3, 5]: 1.39
Mean Value of CRs, p-Erk Fold [3, 5]: 0.08
Mean Value of CRs, p-Plcγ2 Total Phospho [3, 5]: 1.81
Mean Value of CRs, p-S6 Fold [3, 5]: 0.14
Mean Value of CRs, p-Plcγ2 Fold ([3]; Study No. 1 sensitivity analysis, CR samples, negative = down regulation): −0.14
Mean Value of NRs, p-Akt Fold [3, 6]: 0.65
Mean Value of NRs, p-CREB Fold [3, 6]: 0.36
Mean Value of NRs, p-CREB Total Phospho [3, 6]: 2.13
Mean Value of NRs, p-Erk Fold [3, 6]: 0.33
Mean Value of NRs, p-Plcγ2 Total Phospho [3, 6]: 2.78
Mean Value of NRs, p-S6 Fold [3, 6]: 0.83
Mean Value of NRs, p-Plcγ2 Fold ([3]; Study No. 1 sensitivity analysis, NR samples incl. CRp, negative = down regulation): −0.08
FLT3L-induced PI3K and MAPK pathway activation ([4]; FLT3-ITD samples compared to FLT3-WT samples): lower levels of induced and total PI3K and MAPK pathway activation
FLT3L-induced signaling at 15 minutes ([4]; FLT3-WT AML samples): sustained p-Erk, p-CREB and p-Akt activation
range of FLT3L-induced S6 signaling ([4]; FLT3-WT AML samples): wide range of S6 signaling
FLT3L-induced p-Akt and p-S6 ([4]; FLT3-WT AML samples, early time points (4 minutes, 10 minutes)): increased levels of p-Akt and p-S6

B2: IL-27: interleukin-27 (protein, UniProt Q8NEV9 29-243; Q14213 21-229, looked up)
Interleukin-27 subunit alpha: FPRPPGRPQLSLQELRREFTVSLHLARKLLSEVRGQAHRFAESHLPGVNLYLLPLGEQLPDVSLTFQAWRRLSDPERLCFISTTLQPFHALLGGLGTQGRWTNMERMQLWAMRLDLRDLQRHLRFQVLAAGFNLPEEEEEEEEEEEEERKGLLPGALGSALQGPAQVSWPQLLSTYRLLHSLELVLSRAVRELLLLSKAGHSVWPLGFPTLSPQP
Interleukin-27 subunit beta: RKGPPAALTLPRVQCRASRYPIAVDCSWTLPPAPNSTSPVSFIATYRLGMAARGHSWPCLQQTPTSTSCTITDVQLFSMAPYVLNVTAVHPWGSSSSFVPFITEHIIKPDPPEGVRLSPLAERQLQVQWEPPGSWPFPEIFSLKYWIRYKRQGAARFHRVGPIEATSFILRAVRPRARYYVQVAAQDLTDYGELSDWSLPATATMSLGK
IL-27 induced activation of the Jak/Stat pathway [2]: minimal IL-27 induced activation of the Jak/Stat pathway
Mean Value of CRs, p-CREB Total Phospho [3, 5]: 1.25
Mean Value of CRs, p-Stat1 Total Phospho [3, 5]: 0.39
Mean Value of CRs, p-Stat3 Total Phospho [3, 5]: 1.01
Mean Value of NRs, p-CREB Total Phospho [3, 6]: 2.36
Mean Value of NRs, p-Stat1 Total Phospho [3, 6]: 0.81
Mean Value of NRs, p-Stat3 Total Phospho [3, 6]: 1.85
IL-27-induced levels of total p-Stat1 and p-Stat3 ([3]; staurosporine resistant samples vs other apoptosis categories): all greater in this apoptotic sub-category
responsiveness to IL-27 stimulation ([4]; FLT3-ITD samples): minimal responsiveness
IL-27-induced p-Stat responses ([4]; FLT3-WT samples): wide range of p-Stat responses
